The text below walks through data of patent publication US20240409617A1.

Bounds are passed on as bounds.

Experiment [1] concerns the target B.1.1.7 Spike (SARS-CoV2).
Experiment [2] concerns the target B.1.351 Spike (SARS-CoV2).

B1: Ab_17 scFv-Fc (scFv, V domains shown)
VH: QVQLVQSGGGVVQPGRSLRLSCAASGFTFDDYAMHWVRQVPGKGLEWVSGIDWNSGVIGYADSVKGRFTISRDNVKNSLYLQMNSLRTEDSALYYCAKDIGPGGSGSYYAFDIWGQGTTVTVSS
VL: QSALTQPASVSGSPGQSITISCTGTSSDVGGSKYVSWYQQHPGKAPKVMIYDVTKRPSGVPDRFSGSKSGNTASLTISGLQAEDEADYYCAAWDDSLNGVVFGGGTKLTVL
On to B1, for which the dissociation constant Kd came to 1.85 pM in experiment [1], 562 pM in experiment [2] and 8 pM with P.1 Spike (SARS-CoV2). In addition, the figures for the Response (in experiment [1]; in experiment [2]; with P.1 Spike (SARS-CoV2)) were 0.331, 0.199 and 0.177, respectively.

B2: Ab_23 scFv-Fc (scFv, V domains shown)
VH: EVQLVQSGAEVKKPGSSVKVSCRSSGGTFSTYGITWVRQAPGQGLEWMGRIIPSLGIPNYAQKFQGRVTITADTSVSTAWMELSSLESDDTAIYYCARENIDLATNDFWGQGTLVTVSS
VL: QSALTQPPSASGSPGQSVTISCTGTSRDIGAYGYVSWYQQVPGKAPKLIIYEVRNRPSGVSSRFSGSKSGNTASLTISGLQAEDEADYYCSSYTSSSTLDVVFGGGTKLTVL
For B2, the results for the Kd (in experiment [1]; in experiment [2]; with P.1 Spike (SARS-CoV2)) were 9.11 pM, 7.58 pM and 8.79 pM, respectively. For the same molecule, the figures for the Response (in experiment [1]; in experiment [2]; with P.1 Spike (SARS-CoV2)) were 0.135, 0.189 and 0.123, respectively.

B3: S1-RBD-R3-T1-F5 (Ab2-7) scFv-Fc (scFv, V domains shown)
VH: QVTLKESGPTRVKPTQTLTLTCTFSGFSLSTTGVGVGWIRQPPGKALEWLALIYWNDDKRYSPSLKSRLTITKDTSKNQVVLTMTNMDPVDTATYYCARISGSGYFYPFDIWGQGTTVTVSS
VL: NFMLTQPHSVSESPGKTVTISCTRSSGSIASNYVQWYQQRPGSSPTTVIYEDNQRPSGVPDRFSGSIDSSSNSASLTISGLKAEDEADYYCQSYDSSSLWVFGGGTKLTVL
As to B3, the figures for the Kd (in experiment [1]; in experiment [2]; with P.1 Spike (SARS-CoV2)) were 379 pM, 360 pM and 7.04 pM, respectively. For the same molecule, the Response in experiment [1] stood at 0.127; in experiment [2], 0.13; in the experiment with P.1 Spike (SARS-CoV2), 0.152.

B4: Ab_28 scFv-Fc (scFv, V domains shown)
VH: QVTLKESGPGLVNPSETLSLTCTVSGASISNSFWSWIRQSPGKGLEWIGYTSYSGNSIYNPSLKSRLTMSIDTSKNQLSLNLRSLTAADTAVYYCARREWIKGHFDYWGQGTLVTVSS
VL: NFMLTQPHSVSESPGKTVTISCTGSGGSIASNYVQWYQQRPGSAPTTVIYEDNQRPSGVPDRFSGSIDSSSNSASLTISGLKTEDEADYYCQSYDSSNPVVFGGGTKLTVL
With B4, the dissociation constant (Kd) in experiment [1] was determined as 1.49 pM; in experiment [2] it was 6.38 pM; with P.1 Spike (SARS-CoV2), 8.91 pM. The Response in experiment [1] was determined as 0.206; in experiment [2], 0.12; with P.1 Spike (SARS-CoV2), 0.102.

B5: Ab_20 scFv-Fc (scFv, V domains shown)
VH: QVQLVQSGGGSVKPGGSLRLSCAASGYRLSDYYMHWVRQAPGKGLEWVANIKQDGSEKYYVDSVKGRFTISRDNAKNSLYLQMNSLRAEDTAVYYCARVRGWSRGYFDYWGQGTLVTVSS
VL: NFMLTQPHSVSESPGKTVTISCTGSSGSIASNYVQWYQQRPGSAPTTVIYEDNQRPSGVPDRFSGSIDSSSNSASLLISGLKTEDEADYYCQSYDSSNHWVFGGGTKLTVL
With B5, the dissociation constant Kd in experiment [1] came out at 2.6 pM; in experiment [2], 7.03 pM; in the experiment with P.1 Spike (SARS-CoV2), 11.2 pM. Besides, the Response in experiment [1] is 0.173; in experiment [2], 0.213; in the experiment with P.1 Spike (SARS-CoV2), 0.17.

B6: Ab_25 scFv-Fc (scFv, V domains shown)
VH: QVQLVQSGGGLVQPGGSLRLSCAASGFTFSSYWMSWVRQAPGKGLEWVANIKQDGSEKYYVDSVKGRFTISRDNAKNSLYLQMNSLRAEDTAVYYCARGFYYYGAFDIWGQGTTVTVSS
VL: NFMLTQPHSVSESPGKTVTISCTGSSGSIASNYVQWYQQRPGSAPTTVIYEDNQRPSGVPDRFSGSIGSSSNSASLTISGLKTEDEADYYCQSYDSSNHWVFGGGTKLTVL
For the molecule B6, the values for the Kd (in experiment [1]; in experiment [2]; with P.1 Spike (SARS-CoV2)) were 427 pM, 1.13 pM and 8.72 pM, respectively. For the same molecule, the Response worked out at 0.0668 in experiment [1], 0.0577 in experiment [2] and 0.0396 with P.1 Spike (SARS-CoV2).

B7: Ab_13 scFv-Fc (scFv, V domains shown)
VH: QVTLKESGPKLVKPTQTLTLTCTFSGFSLSTSGVGVGWIRQPPGKALEWLALIYWDDDKRYSPSLKSRLTIAKDTSKYQVVLTMTNMDPVDTATYYCARISGSGYFYPFDIWGQGTMVTVSA
VL: NFMLTQPHSVSESPGKTVTISCTRSSGSIASNYVQWYQQRPGSAPTTVIYEDNQRPSGVPDRFSGSIDSSSNSASLTISGLKTEDEADYYCQSYDSSNLWVFGGGTKLTVL
As to B7, the values for the Kd (in experiment [1]; in experiment [2]; in the experiment with P.1 Spike (SARS-CoV2)) were 1.91 pM, 735 pM and 4.88 pM, respectively. Moreover, the Response amounted to 0.113 in experiment [1], 0.103 in experiment [2] and 0.112 in the experiment with P.1 Spike (SARS-CoV2).

B8: S1-R3-T1-C4 (Ab_8) scFv-Fc (scFv, V domains shown)
VH: QVQLVQSGAEVKKPGSSVKVSCKASGGTFSSYAISWLRQAPGQGLEWMGWINPNSGGTNYAQKFQGRVTMTRDTSISTAYMELSRLRSDDTAVYYCARGSGGYYLGWGQGTLVTVSS
VL: QPGLTQPPSVSKGLRQTATLTCTGNSNNVGNQGAAWLQQHQGHPPKLLSYMNNNRPPGISERFSASRSGNTASLTITGLQPEDEADYYCSAWDSSLSRWVFGGGTKLSVL
As for B8, the dissociation constant Kd in experiment [1] stood at 2.29 pM; in experiment [2] it was 1090 pM; in the experiment with P.1 Spike (SARS-CoV2), 10.6 pM. The Response in experiment [1] was determined as 0.202; in experiment [2], 0.0872; with P.1 Spike (SARS-CoV2), 0.0784.

B9: Ab_16 scFv-Fc (scFv, V domains shown)
VH: QVQLVQSGGGVVQPGRSLRLSCAASGFTFSNYGMHWVRQAPGKGLEWVALIWERGSKKDYADSVKGRFTVSRDNSKNTLYLQMNSLRPEDTAVYFCAREGISMTGAEYFQHWGQGTLVTVSS
VL: QSVLTQPPSVSGSPGQRVTMSCTGSSSNIGAGYDVHWYQQVPGAAPRLLIYGTNNRPSGVPDRFSGSKSGTSASLTITGLQAEDEADYYCQSYDNSLTDPYVFGTGTKVTVL
Consider B9, for which the equilibrium dissociation constant (Kd) in experiment [1] is 2.36 pM; in experiment [2] it was less than 1 pM; with P.1 Spike (SARS-CoV2) it was 7.93 pM. In addition, the Response came to 0.388 in experiment [1], 0.405 in experiment [2] and 0.35 with P.1 Spike (SARS-CoV2).

B10: Ab_27 scFv-Fc (scFv, V domains shown)
VH: QVQLVQSGTEVKKPGASVKVSCKASGYSFTGSHLHWVRQAPGQGLEWMGWINPDSGVINYAQKFQGRVTLTRDTSISTAYMELSGLRSDDTAVYYCARDKAIGYVWALDYWGQGTLVTVSS
VL: QSALTQPPSVSGSPGQSVTISCTGTSSDVGTYNRVSWYQQPPGKAPKLMIYEVSNRPSGVSNRFSGSKSGNTASLTISGLQAEDEADYYCSSYTRTFTYVFGTGTKVTVL
Regarding B10, the Kd in experiment [1] is 1.57 pM; in experiment [2], 1.25 pM; with P.1 Spike (SARS-CoV2), 8.9 pM. In addition, the Response in experiment [1] was 0.281; in experiment [2], 0.0974; in the experiment with P.1 Spike (SARS-CoV2), 0.0795.

B11: Ab_18 scFv-Fc (scFv, V domains shown)
VH: EVQLVQSGGGVVQPGRSLRVSCAASGFSFSRYGMHWVRQAPGKGLEWVAFIRHDGSKKYYADSVEGRFTISRDNSRNTVSLEMNSLRGEDTAVYYCAKDGRLEAALDDWGQGTLVTVSS
VL: NFMLTQPHSMSGSAGKTVTVSCIRSSGSIANNFVQWYQQRPGSAPTTVIYEDNQRPSGVPDRFSGSIDSSSNSASLTISGLKTEDEADYYCQSYDSSNLVFGGGTRLTVL
For the molecule B11, the dissociation constant (Kd) in experiment [1] came out at 9.28 pM; in experiment [2], 1340 pM; with P.1 Spike (SARS-CoV2) it was 2.97 pM. The Response in experiment [1] worked out at 0.256; in experiment [2] it was 0.12; with P.1 Spike (SARS-CoV2), 0.109.

B12: Ab_26 scFv-Fc (scFv, V domains shown)
VH: QVQLVQSGGGLVQPGRSLRLSCAASGFTFDDYAMHWVRQVPGKGLEWVSGIDWNSGVIGYADSVKGRFTISRDNAKNSLYLQMNSLRAEDTALYYCAKDAYSYGFLGAFDIWGQGTMVTVSS
VL: LPVLTQPPSVSVAPGQTASITCGGDNIRTKGVHWYQQKPGQAPLLVIYYASDRPSGIPERFSGSSSGNTATLTISRVEAGDEADYYCQVWDSSSDLVVFGGGTTLTVL
With B12, the equilibrium dissociation constant (Kd) in experiment [1] is 1.37 pM; in experiment [2], 1.78 pM; in the experiment with P.1 Spike (SARS-CoV2) it was 10.3 pM. In addition, the Response was 0.336 in experiment [1], 0.214 in experiment [2] and 0.188 with P.1 Spike (SARS-CoV2).

B13: Ab_19 scFv-Fc (scFv, V domains shown)
VH: EVQLVESGAEVKKPGESLKISCKGSGYSFTSYWIGWVRQMPGKGLEWMGIIYPGDSDTRYSPSFQGQVTISADKSISTAYLQWSSLKASDTAMYYCARRGDLDAFDIWGQGTMVTVSS
VL: QPGLTQPPAASGTPGQRVTVSCSGASANIGSNAVSWFKQFPETAPRLLISGNTHRPSGVPDRVSGSKSGTSASLTISGLQSDDEADYYCAAWDDSLNGYVFGSGTKVTVL
With B13, the values for the dissociation constant Kd (in experiment [1]; in experiment [2]; with P.1 Spike (SARS-CoV2)) were 10.3 pM, 11.8 pM and 8.94 pM, respectively. For the same molecule, the figures for the Response (in experiment [1]; in experiment [2]; with P.1 Spike (SARS-CoV2)) were 0.203, 0.258 and 0.204, respectively.

B14: Ab_14 scFv-Fc (scFv, V domains shown)
VH: QVQLQQSGPGLVKPSQTLSLTCAISGDSVSSNSAAWNWIRQSPARGLEWLGRTYYRSRWYNDYAISMKSRITINPDTSKNQFSLQLESVTPEDTAVYYCAREIRGFDYWGQGTLVTVSS
VL: QSVLTQPPSASGSPGQSVTISCTGTSSDVGAYNFVSWYQHHPGKAPKLIIYDFNKRPSGVPDRFSGSKSGNTASLTVSGLQADDEADYYCSSYAGSNNFDVVFGGGTKLTVL
For the molecule B14, the dissociation constant (Kd) in experiment [1] stood at 7.98 pM; in experiment [2], 3.1 pM; with P.1 Spike (SARS-CoV2), 9.75 pM. The figures for the Response (in experiment [1]; in experiment [2]; in the experiment with P.1 Spike (SARS-CoV2)) were 0.355, 0.253 and 0.27, respectively.

B15: Ab_21 scFv-Fc (scFv, V domains shown)
VH: QVQLVQSGGGLVQPGGSLRLSCATSGFTFDDYAMHWVRQAPGKGLEWVSGISWNSGSIGYVDSVKGRFTISRDNRNNKVYLQMNNLRAEDTAVYYCARDWWGSIDHWGLGTLVTVSS
VL: QSALTQPRSVSGSPGQSVTISCTGTSSDVGGYDYVSWYQQHPGKAPKLIIYDVSKRPSGVPDRFSGSKSGNTASLTVSGLQAEDEADYYCSSYTSSSPVVFGGGTKLTVL
For B15, the values for the dissociation constant Kd (in experiment [1]; in experiment [2]; with P.1 Spike (SARS-CoV2)) were 1.47 pM, 369 pM and 9.52 pM, respectively. Besides, the Response in experiment [1] was 0.199; in experiment [2] it was 0.148; with P.1 Spike (SARS-CoV2), 0.103.
